Paper PMC5341616 (Biochemistry and Biophysics Reports, 2017)

Columns and labels:
[1] = target: PLIC-2 UBL domain UBLN2 1-107 (human, UniProt Q9UHD9 1-107); experiment: NMR titration
Ubiquitin = Ubiquitin (UniProt P0CG48 1-76); experiment: NMR titration

Sequence of PLIC-2 UBL domain UBLN2 1-107 (Q9UHD9 1-107): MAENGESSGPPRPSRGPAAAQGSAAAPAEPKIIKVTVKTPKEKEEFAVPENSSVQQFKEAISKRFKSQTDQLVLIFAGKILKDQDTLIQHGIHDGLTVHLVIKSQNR

Kd [1]: 175 ± 25 µM | Kd (Ubiquitin): 8.1 ± 1.5 µM
Binder: PEVRFQQQLEQLNAMGFLNREANLQALIATGGDINAAIERLLGSQPS (domain or fragment, human, UniProt Q9UHD9 578-624, looked up) [PLIC-2 UBA domain UBLN2 578-624]
